Assay results from article PMC9825669.
Where “and” joins values, the source holds several entries; their conditions need not be identical. Identical values can stand only once.

Target: LtMCC α6β6 dodecamer (L. tarentolae (endogenous in L. tarentolae TATII/UC cells))
Experiment: filament lengths counted on cryoEM micrographs

LtMCC α6β6 dodecamer (complex)
stoichiometry N: 4 and 6
